Experimental data from PMC5415871 (Biochemistry, 2017).

What was measured:
[1] = target: type 2α regulatory subunit of PKA (RIIα), full length (rat, UniProt P12368 1-401); assay: fluorescence polarisation
[2] = target: type 2β regulatory subunit of PKA (RIIβ), full length (rat, UniProt P12369 1-416); assay: fluorescence polarisation
Chain of type 2β regulatory subunit of PKA (RIIβ), full length (P12369 whole entry): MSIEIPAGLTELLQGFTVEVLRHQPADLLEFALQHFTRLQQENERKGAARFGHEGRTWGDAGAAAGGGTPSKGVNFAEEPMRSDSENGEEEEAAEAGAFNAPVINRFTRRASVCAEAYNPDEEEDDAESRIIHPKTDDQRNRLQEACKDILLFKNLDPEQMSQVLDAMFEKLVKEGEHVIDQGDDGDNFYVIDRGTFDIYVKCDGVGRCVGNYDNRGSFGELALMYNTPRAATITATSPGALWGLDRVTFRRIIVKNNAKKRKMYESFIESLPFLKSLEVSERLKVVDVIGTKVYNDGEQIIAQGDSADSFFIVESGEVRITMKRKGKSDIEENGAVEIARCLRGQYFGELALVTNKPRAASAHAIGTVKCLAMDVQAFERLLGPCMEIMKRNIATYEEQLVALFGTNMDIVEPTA

Chain of type 2α regulatory subunit of PKA (RIIα), full length (P12368 whole entry): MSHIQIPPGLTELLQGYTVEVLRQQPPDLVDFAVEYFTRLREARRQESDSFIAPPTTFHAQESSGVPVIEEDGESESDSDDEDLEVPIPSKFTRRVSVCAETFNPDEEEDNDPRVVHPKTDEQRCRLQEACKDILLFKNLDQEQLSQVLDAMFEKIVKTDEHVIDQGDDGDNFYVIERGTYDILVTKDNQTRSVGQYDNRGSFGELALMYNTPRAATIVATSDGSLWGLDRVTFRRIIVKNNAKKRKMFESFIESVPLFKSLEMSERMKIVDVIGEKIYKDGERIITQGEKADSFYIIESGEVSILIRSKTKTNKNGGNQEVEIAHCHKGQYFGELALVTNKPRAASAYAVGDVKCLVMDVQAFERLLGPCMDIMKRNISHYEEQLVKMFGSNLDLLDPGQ

B1: S100A1 (natural protein)
chain: GSELETAMETLINVFHAHSGKEGDKYKLSKKELKELLQTELSGFLDAQKDVDAVDKVMKELDENGDGEVDFQEYVVLVAALTVACNNFFWENS
Binder B1 has a Kd [1] of 990 nM and a Kd [2] of 2160 nM.
